Experiments:
MS2 coat protein [1] = test: apparent KD of MS2 coat protein; designed switch direction (-1 OFF switch, 1 ON switch): 1; higher = weaker reporter binding
How it was run: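 Designed RNA switches were transcribed on Illumina chips by stalled E. coli RNA polymerase and titrated with SNAP-549-labelled MS2 coat protein from 0.7 or 1.5 nM, doubling to 3 µM. Step length ran from 0.8–1.5 h at the lowest concentration to 10–20 min at the highest. The apparent KD is the median over clusters for each design, from curve-fitted normalised cluster fluorescence.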

MS2 coat protein [2] = test: apparent KD of MS2 coat protein; higher = weaker reporter binding; details: Eterna round: R107
How it was run: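 Titrations with SNAP-549-labelled MS2 coat protein ran in twofold steps from 0.7 or 1.5 nM to 3 µM, each step taking 0.8–1.5 h at the start and 10–20 min toward the end. The targets were designed RNA switches transcribed on-chip from Illumina sequencing clusters, held in 100 mM Tris-HCl pH 7.5, 80 mM KCl, 4 mM MgCl2, without or with constant ligand. Apparent KD was taken per design as the median of normalised cluster binding-curve fits.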

[3] = Eterna round: R95, input ligand: FMN 200 uM
[4] = Eterna round: R95, input ligand: microRNA oligo, concentration not stated
[5] = Eterna round: R95, input ligand: none
[6] = input ligand: microRNA oligo, concentration not stated
[7] = input ligand: theophylline 20 uM
[8] = input ligand: theophylline 2 mM
[9] = input ligand: tryptophan 2.4 mM

Sequence	apparent KD of MS2 coat protein (MS2 coat protein [1]; input ligand: FMN 200 uM) [nM]	apparent KD of MS2 coat protein (MS2 coat protein [1]; [6]) [nM]	apparent KD of MS2 coat protein (MS2 coat protein [1]; input ligand: none) [nM]	apparent KD of MS2 coat protein (MS2 coat protein [2]; input ligand: arginine 13.2 mM) [nM]	apparent KD of MS2 coat protein (MS2 coat protein [2]; [7]) [nM]	apparent KD of MS2 coat protein (MS2 coat protein [2]; [8]) [nM]	apparent KD of MS2 coat protein (MS2 coat protein [2]; [9]) [nM]	other results
AAAAAACAUGAGGAUCACCCAUGUCAAAAGACAUGAGGAUAUGUGCAAAUAAAAUAAGAAACAGAAGGCAUGAAAA [salish99_ss1_r3_102] (puzzle: Same State 1)								apparent KD of MS2 coat protein (MS2 coat protein [1]; [3]): 69.1 nM; apparent KD of MS2 coat protein (MS2 coat protein [1]; [4]): 210 nM; apparent KD of MS2 coat protein (MS2 coat protein [1]; [5]): 229 nM
AAAAAACAUGAGGAUCACCCAUGUCAAAAGACUCGAGGAUAUGGGCAAAUAAAAUAAGAACCAGAAGGCGAGAAAA [salish99_ss1_r3_101] (puzzle: Same State 1)								apparent KD of MS2 coat protein (MS2 coat protein [1]; [3]): 20 nM; apparent KD of MS2 coat protein (MS2 coat protein [1]; [4]): 36.3 nM; apparent KD of MS2 coat protein (MS2 coat protein [1]; [5]): 31.7 nM
AAAACAGGCUUCCUCUCGUCUCAAAAUGCACAUGAGGAUCACCCAUGUAAAACCCAGCGUAGUGUCGCACUACCUGA [Laresoar] (puzzle: Sensor for hsa-mir-208a)								apparent KD of MS2 coat protein (MS2 coat protein [1]; [3]): 161 nM; apparent KD of MS2 coat protein (MS2 coat protein [1]; [4]): 23.4 nM; apparent KD of MS2 coat protein (MS2 coat protein [1]; [5]): 126 nM
AAAAGAAACACAGGAUAUACCGCACUUAACGCGGUAGAAGGGUGGGACAUGAGGAUCACCCAUGUGGCCUGAGCACCAGGCCGC [Orgele] (Eterna round: R96, puzzle: Same State NG 1)	47	5.38	21.8					
AAAAGAAACAUGUACCUGAGUACAUGAAAACAUGAGGAUCACCCAUGUAAUAAGCGGGUGGCUCGUCUUAUAAGAAA [JL pocket 27] (Eterna round: R96, puzzle: Sensor for hsa-mir-208a)	890	70.4	715					
AAAAGACAGGCAGGAUAUGGGCCUGGCUCUGAUAUCAGAGCCUACACAUGAGGAUCACCCAUGUCCCAGAAGGGCCUGUAGAAG [Cetiriqu] (Eterna round: R96, puzzle: Same State NG 2)	19.4	65.3	79.1					
AAAAUCGCGAUAGGAUAUGGGAAAGGAAGUGUACCAGAAGGAUCAGCGCCGACUGGACAUGAGGAUCACCCAUGUCGAGUCUUA [PowerStrip SSNG 1.2] (Eterna round: R96, puzzle: Same State NG 1)	42.2	26.6	80.5					
AAAAUGGUAUGUUACAUGAGGAUCACCCAUGUACUCUAAUCUGAGGAUAUGGGAAUGAAGAAGAACCAGAAGGCAGACAUCCAA [AK SSNG3-V2-23] (Eterna round: R96, puzzle: Same State NG 3)	258	91.8	104					
AAAAUGUGAUGUUACAUGAGGAUCACCCAUGUAGUGACAACUAAGGAUAUCCGAAAAAAAGGAGAGGAGAAGGUAGGAUCACAA [AK SSNG3-V2-16.2] (Eterna round: R96, puzzle: Same State NG 3)	18.3	33.3	46.3					
AAACACGGCAUAACACCGUGACAUGAGGAUCACCCAUGUACACAGGAUAUCAUGGCAAAACGCCAUGAGAAGGGUGAUCAAGAC [Telate] (Eterna round: R96, puzzle: Same State NG 3)	464	68.1	35.1					
AAACAGCCCAACGGAGGGCCACAUGAGGAUCACCCAUGUACAUAGGAUAUCACGCCAACGAGGCGUGAGAAGGGUGAUUAAAAC [Inesteen] (Eterna round: R96, puzzle: Same State NG 3)	18	51.2	53.9					
AAACAGCCGAACGGAGGGCCACAUGAGGAUCACCCAUGUACAUAGGAUAUCAUGCCAACGAGGCAUGAGAAGGGUGAUUAAAAC [Usinvema] (Eterna round: R96, puzzle: Same State NG 3)	11.7	350	359					
AAACAUGAGCGAGGAUAUGCGGACGAUUACGCUGUAGAAGGCGCAUGUAAAACAACAUGAGGAUCACCCAUGUCAUGUACAUGU (Eterna round: R96, puzzle: Same State NG 1)	308	146	265					
AAACCACAUGAGGAUCACCCAUGUCAAGAGAGACUAGGAUAUCUGAAUUAAUUAAAUUAAGGAGAAGGAGUGAAAA [71%, Same state of confusion2, 3] (Eterna round: R96, puzzle: Same State 1)	57.4	100	131					
AAACGGCCCAACGGAGGGCCACAUGAGGAUCACCCAUGUACAUAGGAUAUCACACCAACAAGGCGUGAGAAGGGUGAUUAAAAC [Xeatte] (Eterna round: R96, puzzle: Same State NG 3)	58.1	1120	747					
AAACGUCACAUGAGGAUCACCCAUGUAGCCAUAAGAAGCGGACAGGAUAUUGACCUGAACGGAGUCAAGAAGGGUCAGUAUCAG [Eternabot solution 1] (Eterna round: R96, puzzle: Same State NG 3)	14.7	12.9	18.2					

Sequence	apparent KD of MS2 coat protein (MS2 coat protein [1]; input ligand: FMN 200 uM) [nM]	apparent KD of MS2 coat protein (MS2 coat protein [1]; [6]) [nM]	apparent KD of MS2 coat protein (MS2 coat protein [1]; input ligand: none) [nM]	apparent KD of MS2 coat protein (MS2 coat protein [2]; input ligand: arginine 13.2 mM) [nM]	apparent KD of MS2 coat protein (MS2 coat protein [2]; [7]) [nM]	apparent KD of MS2 coat protein (MS2 coat protein [2]; [8]) [nM]	apparent KD of MS2 coat protein (MS2 coat protein [2]; [9]) [nM]	other results
UUCAGCUAGUCGGCCGCCACUGCUUGAGGAUCACCCAAGUAGGUCCACACUGCUUCGGCAGUGAGUAGGACCGGGACUAGCUGAG				10.9	14.4	10.1	25.8	apparent KD of MS2 coat protein (MS2 coat protein [2]; input ligand: none): 10.1 nM
UUCUACGACGAUCUGGGAAAACCAGAUCGACGAGGACCGGUACGGCCGCCACUCGUGUUUCUUUAACAUGAGGAUCACCCAUGUA [#12 Tryptophan A Same State]				23.6	28	27.8		
UUCUUUAAGUCGGCCGCCACUGAAACAUGAGGAUCACCCAUGUAUAUUUGGGUAUAGGUGGAUUACAGGACCGGGACUAUAGUAA [JR_ExcTryptoB_Sub022]				31.2	72.3	104	79.6	apparent KD of MS2 coat protein (MS2 coat protein [2]; input ligand: none): 66.1 nM
UUGACAUGAGGAUCACCCAUGUUAGCGGAAGGAGCGCGGUAGUACGCAGGUAGGUCGCCGAGAACAGUGAUAGUUGUUCUCAUGU [X-ArgiA-ms2@4-1]				27.6	85	91.2	46.9	apparent KD of MS2 coat protein (MS2 coat protein [2]; input ligand: none): 76.6 nM
UUGGGUUUGUGAAGGAGCGGGUAUGUUUUAUAGUGGAUCCUAACAUGAGGAUCACCCAUGUCCCAGGUAGGUCGCGCGGGUUUGG [12.T]				54.4	203	149	117	apparent KD of MS2 coat protein (MS2 coat protein [2]; input ligand: none): 78.3 nM
UUUACAUGAGGAUCACCCAUGUGCCAUGAUACCAGACAUGAAAAUGUCCCUUGGCAGCAUGAAGGUACCUCAUCGGGAAACCGAA [Malomerice]				28.5	95.7		53	
UUUCAAGUAUCGGCCGCCACUCUAGUUGGUUGUUCAAUCCGAUUACAUGAGGAUCACCCAUGUCUGAGGACCGGGAUAAAGUAAU [theeternabot_sameState_MS2_Trp_B_25]				20.4	32.5	31.2		
UUUGAGAUAACAGAUACCAGCGUGUUAUAAAACAUGAGGAUCACCCAUGUAGUGAUCAAGCGCCCUUGGCAGCUGGUAUUUUAGG [7.G]				70.3	186		146	
UUUGAUAGGACAGAUACCAGCGUGUUGUUGAACAUGAGGAUCACCCAUGUAGUGAUCAGGCGCCCUUGGCAGCUGGUUUGUUAGG [7.N]				265	363		366	
UUUUAAGGGAUCGGUGCUGGUAGCAGAGAUACCAGAGUAAUGAUACUCCCUUGGCAGCUCAGUACAUGAGGAUCACCCAUGUUUU [Exclusion Theophylline A GF25]				16.7	23.2		18.1	
UUUUACGGCGAUCUGGGUUUACCAGAUCGGCGAGGACCGGUACGGCCGCCACUCGUGUUUCUUUAACAUGAGGAUCACCCAUGUA [SSTA #1]				32.4	77.3	50.9	16	apparent KD of MS2 coat protein (MS2 coat protein [2]; input ligand: none): 38.4 nM
UUUUACGGCGAUCUGGGUUUACCAGAUCGGCGAGGACCGGUACGGCCGCCACUCGUGUUUCUUUGACAUGAGGAUCACCCAUGUA [whbob_SS_trypto A_f1]				28.9	42.5	39.2		
UUUUAGCAUCGAAGGAGCGCUGGUAGGUGACACAUGAGGAUCACCCAUGUGCUCCUUACCGAGCAGGUAGGUCGCGAUGCUAUUU [SSAB NP+V+V2 #9]				20	35.4	29.4	25.1	apparent KD of MS2 coat protein (MS2 coat protein [2]; input ligand: none): 23.7 nM
UUUUUCGCGGGCGAUACCAGCUUGAUCGUACUGGCCUGGUACAUGAGGAUCACCCAUGUAAGCCCUUGGCAGCGCGCGCGAGAAG [#1 Exclusion - Theophylline B Attempt #2 (HarryS)]				10.8	17.7	30.4	12	apparent KD of MS2 coat protein (MS2 coat protein [2]; input ligand: none): 11.5 nM
UUUUUCGCGGGUGAUACCAGCAAAGCUGUACUGGUCUGGUACAUGAGGAUCACCCAUGUUUGCCCUUGGCAGCGCUCGGGAGAAG [#21 Exclusion-TheophyllineB]				27.7	47.9		28.6	
UUUUUUAUUAUGGCGUAUCGGAAAACCGAUACCAGUACAGAAAUGUACCCUUGGCAGCGGCGUUUUACAUGAGGAUCACCCAUGU [Ex Theophylline A 5]				12.4	18.9		15.4	

— the supplement of paper PMC9170038
